Drawing on patent publication US20220306759A1, this text covers Bmax (MFI) and Kd for one substance.

Broadly, the Kd is a measure of binding affinity in units of concentration. Low values mean higher affinity, high ones lower affinity.

The target of experiment [1] is human CD71 (transferrin receptor protein 1, TfR1) on human cell lines (human) (UniProt P02786). Briefly: FACS on H292 cells; isotype ADC control.
Experiment [2] shares this target. Briefly: FACS on H292 cells; isotype ADC control, curve fit with Bmax of only 10.64 MFI.

Chain of human CD71 (transferrin receptor protein 1, TfR1) on human cell lines (human) (P02786 whole entry): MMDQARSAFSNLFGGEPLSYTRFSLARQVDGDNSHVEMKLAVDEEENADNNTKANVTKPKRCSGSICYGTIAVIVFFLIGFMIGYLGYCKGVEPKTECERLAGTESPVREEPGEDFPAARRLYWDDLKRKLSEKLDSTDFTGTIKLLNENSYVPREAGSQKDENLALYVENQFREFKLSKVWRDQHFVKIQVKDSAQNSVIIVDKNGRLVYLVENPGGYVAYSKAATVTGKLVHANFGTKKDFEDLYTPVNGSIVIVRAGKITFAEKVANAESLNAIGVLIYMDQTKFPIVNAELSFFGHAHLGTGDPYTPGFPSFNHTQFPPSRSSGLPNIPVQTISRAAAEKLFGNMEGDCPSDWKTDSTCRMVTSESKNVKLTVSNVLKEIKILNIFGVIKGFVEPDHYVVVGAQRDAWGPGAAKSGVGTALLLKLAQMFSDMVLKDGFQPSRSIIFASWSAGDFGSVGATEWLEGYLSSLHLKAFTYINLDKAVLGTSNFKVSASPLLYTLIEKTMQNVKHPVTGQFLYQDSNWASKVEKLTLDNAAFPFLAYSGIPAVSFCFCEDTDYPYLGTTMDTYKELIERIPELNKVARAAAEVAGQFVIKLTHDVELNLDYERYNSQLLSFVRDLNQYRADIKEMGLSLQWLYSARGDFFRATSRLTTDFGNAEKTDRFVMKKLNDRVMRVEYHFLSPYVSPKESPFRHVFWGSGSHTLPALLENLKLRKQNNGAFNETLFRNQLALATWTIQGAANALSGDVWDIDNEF

Take “isotype ADC control (palivizumab-vc-MMAE) (antibody)”: the Bmax (MFI) in experiment [1] amounted to 10.6 MFI. Besides, in experiment [2], the dissociation constant (Kd) came to 57 nM.
